Data published in paper PMC11917138, “A naturally occurring standalone TrpB enzyme provides insights into allosteric communication within tryptophan synthase” (Protein Science : A Publication of the Protein Society, 2025).
Each block holds one molecule with its values, some of them ahead of it.

What was measured:
[1] = biological target: plTrpB, tryptophan synthase β subunit (TrpB) from Pelodictyon luteolum (Pelodictyon luteolum)
[2] = biological target: plTrpB‐con, plTrpB with the six LBCA-Res6 residues replaced by consensus residues (Pelodictyon luteolum)
[3] = biological target: plTrpB‐con, plTrpB with the six LBCA-Res6 residues replaced by consensus residues (Pelodictyon luteolum); remark: listed apart in the source
[4] = biological target: plTrpB, tryptophan synthase β subunit (TrpB) from Pelodictyon luteolum (Pelodictyon luteolum); remark: listed apart in the source
[5] = biological target: plTrpB, tryptophan synthase β subunit (TrpB) from Pelodictyon luteolum (Pelodictyon luteolum); assay: activity titration; apparent Kd; varying plTrpA added to 2 μM plTrpB or plTrpB-con, TrpB reaction rate read at 290 nm; 30°C, 50 mM potassium phosphate pH 7.5, 180 mM KCl, 40 μM PLP, 75 mM L-serine, 1 mM indole; hyperbolic fit; duplicates
[6] = biological target: plTrpB‐con, plTrpB with the six LBCA-Res6 residues replaced by consensus residues (Pelodictyon luteolum); assay: as above
[7] = biological target: plTrpB, tryptophan synthase β subunit (TrpB) from Pelodictyon luteolum (Pelodictyon luteolum); assay: SEC; analytical SEC, Superdex200 increase 10/300 GL; plTrpA 75 μM, plTrpB or plTrpB-con 50 μM, alone or mixed; 50 mM potassium phosphate pH 7.5, 300 mM KCl, 75 mM L-serine, 25°C
purified protein = substrate: c1ccc2[nH]ccc2c1; assay: purified protein; format: biochemical, Pelodictyon luteolum; details: saturating L-serine, 50 mM potassium phosphate pH 7.5, 180 mM KCl, 40 μM PLP, 30°C
[8] = 1.5-fold molar excess of plTrpA

B1: plTrpB (Pelodictyon luteolum DSM 273) (protein)
chain: MSTTAYSAPDSAGKFGAFGGRFTPETLMQNAAGLEAEYLKAKSDPEFQRTLEGLLGDYVGRPTPLYHAEGLSGMLGGAEVWLKREDLCHTGAHKINNALGQVLLARRMGKRRVIAETGAGQHGVATATVCALFNLQCVVYMGEEDIRRQAPNVARMKLLGAEVRPVSSGSRTLKDATSEAIRDWMNNPEETFYIIGSVVGMHPYPMIVRDFQAVIGRETRRQILDKAGRLPDVITACIGGGSNAVGMFYDFLPDAGSIELIGVEAAGEGLDRRHAASLTMGSPGVLHGAMTMLLQNEDGQIQEAHSISAGLDYPGVGPEHCHLQELGLVKYTSVTDADALSALRTLAETEGIICALESAHAVRYAITRAPEMAKDKIIIVNLSGRGDKDMGTIMEELNL
notes: full-length, C-terminal His6-tag kept, codon-optimized gene in pET21a, E. coli BL21 Gold (DE3); beta-beta dimer
Km (purified protein; no plTrpA): 39 ± 7 µM
kcat (purified protein; no plTrpA): 0.35 ± 0.02 s⁻¹
kcat/Km (purified protein; no plTrpA): 8970 ± 1720 M⁻¹ s⁻¹

B2: plTrpA:plTrpB (Pelodictyon luteolum DSM 273) (protein)
chain: B1 chain
notes: both full-length with C-terminal His6-tag, E. coli BL21 Gold (DE3); alpha-beta-beta-alpha complex, partly formed; with Tryptophan synthase alpha chain
Km (purified protein; [8]): 65 ± 7 µM
kcat (purified protein; [8]): 0.93 ± 0.21 s⁻¹
kcat/Km (purified protein; [8]): 14300 ± 3510 M⁻¹ s⁻¹

Further lines, results first:

k cat of the TrpB reaction of plTrpB with a 1.5-fold molar excess of plTrpA, 30°C [1]: 0.93 s⁻¹
k cat of the TrpB reaction of plTrpB-con with a 1.5-fold molar excess of plTrpA, 30°C [2]: 0.21 s⁻¹
fold activation of k cat of plTrpB-con by plTrpA [3]: 23 fold
fold activation of k cat/K M ^Ind of plTrpB-con by plTrpA [3]: 3.6 fold
fold activation of k cat/K M ^Ser of plTrpB-con by plTrpA [3]: > 10000 fold
fold activation of k cat of plTrpB by plTrpA [4]: 2.7 fold
fold activation of k cat/K M ^Ind of plTrpB by plTrpA [4]: 1.6 fold
fold activation of k cat/K M ^Ser of plTrpB by plTrpA [4]: 9.8 fold
Kd [5]: 8.5 µM
Kd [6]: 9.9 µM
Molecule: plTrpA, tryptophan synthase α subunit (TrpA) from Pelodictyon luteolum (from UniProt A0A1G7SSP5 1-275) (enzyme)

stoichiometry N [7]: 2
Molecule: plTrpB, tryptophan synthase β subunit (TrpB) from Pelodictyon luteolum (from UniProt A0A1G7SST0 1-406) (enzyme)
